“And” between values parts separate entries of the source, which are not always exact repeats. Identical values can stand only once.
What was measured:
human BCMA-His protein [1] = target: T1, human BCMA-His protein (human, UniProt Q02223 1-54); test: SPR, antibody captured on Protein A chip, BCMA-His in solution, 1:1 Langmuir
T1 construct: Bought protein; also called human BCMA protein; BCMA antigen protein; not shown: His tag
T1 sequence (looked up): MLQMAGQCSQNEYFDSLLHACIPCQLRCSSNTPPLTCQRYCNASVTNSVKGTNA
Description: (§1) A sample buffer and a running buffer were HBS-EP+ (10 mM HEPES, 150 mM NaCl, 3 mM EDTA and 0.05% surfactant P20) (GE Healthcare; BR-1006-69). The flow-through cell was set to 25° C. The sample block was set to 16° C. Both were pretreated with the running buffer. In each cycle, an antibody to be tested was first captured with a Protein A chip, and then a single concentration of BCMA antigen protein was injected. The binding and dissociation processes of the antibody and the antigen protein were recorded, and finally Glycine pH 1.5 (GE Helthcare; BR-1003-54) was used to complete chip regeneration. Binding was measured by injecting different concentrations of BCMA-His in solution for 240 s with a flow rate of 30 μL/min. The concentration started from 200 nM (see the detailed results for the actual concentration in the test) and was diluted at 1:1, making a total of 5 concentrations. The dissociation phase was monitored for up to 600 s and was triggered by switching from sample solution to running buffer. The surface was regenerated by washing with a 10 mM glycine solution (pH 1.5) for 30 s at a flow rate of 30 μL/min. Bulk refractive index difference was corrected by subtracting the response obtained from the goat anti-human Fc surface. Blank injection was also subtracted (=double reference). For calculation of apparent KD and other kinetic parameters, Langmuir 1:1 model was used. The binding rate (Kₐ), dissociation rate (Kdis) and binding affinity (KD) of the chimeric antibodies to human BCMA protein are shown in the table, wherein REGN5459-hlgG1 and HPN217-hHcAb antibodies were used as controls.

monkey BCMA-His protein = target: T2, monkey BCMA-His protein (monkey, UniProt A0A2K5UD97 1-53); test: ELISA, coated monkey BCMA-His
T2 construct: bought; monkey species not further stated for this product; also called monkey BCMA protein

human BCMA on cells [2] = target: T3, human BCMA on cells (human, UniProt Q02223 1-184); test: FACS, RPMI8226 cells
T3 construct: whole, on cells; also called H929 cells; U266 cells
T3 sequence (looked up): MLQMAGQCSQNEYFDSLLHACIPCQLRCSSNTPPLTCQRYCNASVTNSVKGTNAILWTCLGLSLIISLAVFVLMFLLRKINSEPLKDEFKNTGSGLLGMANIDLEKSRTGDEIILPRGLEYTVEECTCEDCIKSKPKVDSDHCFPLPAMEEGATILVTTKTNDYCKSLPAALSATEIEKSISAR
Description: (§2) The desired cells were scale-up cultured in T-75 cell culture flasks to the logarithmic growth phase, and the cells were pipetted into a single cell suspension. After the cells were counted, the cells were centrifuged and the cell pellet was resuspended in FACS buffer (PBS+2% fetal calf serum) to 2×10⁶ cells per ml, and the suspension was added to the 96-well FACS reaction plate at 50 μl per well, then the sample to be tested of the chimeric antibody was added at 50 μl per well and the mixture was incubated at 4° C. for 1 h. The obtained mixture was centrifuged and washed 3 times with a PBS buffer. […] The obtained mixture was centrifuged and washed 3 times with a PBS buffer. 100 μl of the mixture was taken for detection and result analysis by FACS (FACS Canto™, purchased from BD Company). Data analysis was performed by software (FlowJo) to obtain the mean fluorescence intensity (MFI) of the cells. Then, a software (GraphPad Prism8) was used for analysis, data fitting and EC50 calculation. The results are shown in Table 10 and FIGS. 10A-10B, FIGS. 11A-11B, and FIGS. 12A-12B. All seven chimeric antibodies bind to three types of BCMA-expressing endogenous cells.

human BCMA-His protein [3] = target: T4, human BCMA-His protein (human, UniProt Q02223 1-54); test: ELISA, coated human BCMA-His
T4 construct: bought; also called human BCMA protein; not shown: His tag
T4 sequence (looked up): T1 sequence (looked up)

human BCMA on cells [4] = target: T3, human BCMA on cells; test: FACS, U266 cells
Description: as §2

human BCMA on cells [5] = target: T3, human BCMA on cells; test: FACS, H929 cells
Description: (§3) H929 cells, U266 cells and RPMI8226 cells were subjected to scale-up culture in T-75 cell culture flask to logarithmic growth phase, and the cells were pipetted to single cell suspension. After counting the cells, centrifugation was performed and the cell pellet was resuspended in FACS buffer (PBS+2% fetal calf serum) to 2×10⁶ cells per ml, and the obtained suspension was added to a 96-well FACS reaction plate at 50 μl per well.

human BCMA-His protein [6] = target: T4, human BCMA-His protein; test: competition ELISA, coated human BCMA; blocked ligand hAPRIL-biotin
human BCMA on cells [7] = target: T3, human BCMA on cells; test: FACS, U266 cells; remark: listed apart in the source
Description: as §3

human BCMA on cells [8] = target: T3, human BCMA on cells; test: FACS, H929 cells; remark: listed apart in the source
Description: as §2

human BCMA on cells [9] = target: T3, human BCMA on cells; test: FACS, RPMI8226 cells; remark: listed apart in the source
Description: as §3

[10] = target: T5, BCMA expressed endogenously on U266 and H929 cells (UniProt Q02223 1-184, limits assumed); test: FACS on U266 cells
T5 construct: whole, on cells; The cell line (U266 or H929) is named under assay in each row; also called B cell maturation antigen; CD269
T5 sequence (looked up): T3 sequence (looked up)
Description: as §2
The specific method was the same as that in Example 5 (C). First, the binding of humanized antibodies to U266 cells was detected. Based on the results, some humanized antibodies were selected and tested for binding to H929 cells. […]

human BCMA-His protein [11] = target: T6, human BCMA-His protein (human, UniProt Q02223 1-54); test: SPR, antibody captured on Protein A chip, BCMA-His as analyte
T6 construct: Analyte in the SPR assay; also called human BCMA protein; BCMA antigen protein; not shown: His tag
T6 sequence (looked up): T1 sequence (looked up)
Description: as §1
The specific method was the same as that in Example 6. The binding rate (Kₐ), dissociation rate (Kdis) and binding affinity (KD) of the humanized antibodies to human BCMA protein are shown Table 38, wherein REGN5459-hlgG1 antibody is used as a control.

T2 sequence (A0A2K5UD97 entry or part of it limits assumed): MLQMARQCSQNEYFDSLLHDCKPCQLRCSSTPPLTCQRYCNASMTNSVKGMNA

B1: HPN217-hHcAb (VHH)
VHH: EVQLVESGGGLVQPGRSLTLSCAASTNIFSISPYGWYRQAPGKQRELVAAIHGTSTLYADSVKGRFTISRDNAKNSIYLQMNSLRPEDTALYYCNKVPWGDYHPGNVYWGQGTQVTVSS
notes: also called control antibody
B1 was tested, and the Kd (human BCMA-His protein [1]) was 0.818 nM, the koff (human BCMA-His protein [1]) was 0.00273 s⁻¹ and the kon (human BCMA-His protein [1]) was 3.34e+06 M⁻¹ s⁻¹.

B2: REGN5459-hIgG1 (antibody, V domains shown)
VH: EVQLVESGGGLVQPGGSLRLSCAASGFTFSNFWMTWVRQAPGKGLEWVANMNQDGSEKYYVDSVKGRFTISRDNAKSSLYLQMNSLRAEDTAVYYCARDREYCISTSCYDDFDYWGQGTLVTVSS
VL: not shown
In the case of B2, the “EC50 (read off the curve)” value (monkey BCMA-His protein) is reported as ~0.1 nM, the EC50 (human BCMA on cells [2]) is reported as 6.79 nM and 4.52 nM and the “EC50 (read off the curve)” value (human BCMA-His protein [3]) is reported as ~0.1 nM. For the same binder, the EC50 (human BCMA on cells [4]) was 9.52 nM and 12.8 nM, the EC50 (human BCMA on cells [5]) was 6.78 nM and the “IC50 (read off the curve)” value (human BCMA-His protein [6]) was ~5 nM. The EC50 (human BCMA on cells [7]) was 9.12 nM, the EC50 (human BCMA on cells [8]) was 8.39 nM and 7.74 nM and the EC50 (human BCMA on cells [9]) was 10.4 nM.

B3: REGN5459-hIgG1 (antibody, V domains shown)
VH: B2 VH
VL: not shown
notes: Positive control antibody
In the case of B3, the EC50 [10] is reported as 9.81 nM and 19.4 nM and 9.49 nM and 18.2 nM, the Kd (human BCMA-His protein [11]) is reported as 0.233 nM and the koff (human BCMA-His protein [11]) is reported as 0.000178 s⁻¹. The kon (human BCMA-His protein [11]) was 766000 M⁻¹ s⁻¹.

B4: REGN5459-hIgG1 (antibody, V domains shown)
VH: B2 VH
VL: not shown
notes: also called REGN5459-hlgG1; control antibody
B4 was tested, and the Kd (human BCMA-His protein [1]) was 0.2 nM, the koff (human BCMA-His protein [1]) was 0.00017 s⁻¹ and the kon (human BCMA-His protein [1]) was 850000 M⁻¹ s⁻¹.

Reference: patent US20250297021A1 (SHANDONG SIMCERE BIOPHARMACEUTICAL CO NO 1, published 2025)
